Measured values published in PMC3632419.
Positions count from the first letter of the chain named. In names and notes the source's numbering stands.

Key:
Assay in all cases: coupled-enzyme assay of AMP release
Type in all cases: biochemical, Streptomyces clavuligerus
Conditions in all cases: ATP as co-substrate
[1] = substrate: C[C@@H](CN[C@@H](CCCNC(=N)N)C(=O)O)C(=O)O
[2] = substrate: C[C@H](CN[C@@H](CCCNC(=N)N)C(=O)O)C(=O)O
[3] = substrate: N=C(N)NCCC[C@H](NCCC(=O)O)C(=O)O

B1: β-lactam synthetase (βLS) (Streptomyces clavuligerus) (protein)
chain: MGAPVLPAAFGFLASARTGGGRAPGPVFATRGSHTDIDTPQGERSLAATLVHAPSVAPDRAVARSLTGAPTTAVLAGEIYNRDELLSVLPAGPAPEGDAELVLRLLERYDLHAFRLVNGRFATVVRTGDRVLLATDHAGSVPLYTCVAPGEVRASTEAKALAAHRDPKGFPLADARRVAGLTGVYQVPAGAVMDIDLGSGTAVTHRTWTPGLSRRILPEGEAVAAVRAALEKAVAQRVTPGDTPLVVLSGGIDSSGVAACAHRAAGELDTVSMGTDTSNEFREARAVVDHLRTRHREITIPTTELLAQLPYAVWASESVDPDIIEYLLPLTALYRALDGPERRILTGYGADIPLGGMHREDRLPALDTVLAHDMATFDGLNEMSPVLSTLAGHWTTHPYWDREVLDLLVSLEAGLKRRHGRDKWVLRAAMADALPAETVNRPKLGVHEGSGTTSSFSRLLLDHGVAEDRVHEAKRQVVRELFDLTVGGGRHPSEVDTDDVVRSVADRTARGAA
[1]
  Km: 60 ± 10 µM
  kcat: 0.023 ± 0.001 s⁻¹
[2]
  Km: 40 ± 10 µM
  kcat: 0.032 ± 0.002 s⁻¹
[3]
  Km: 37 ± 1 µM
  kcat: 0.87 ± 0.01 s⁻¹

B2: β-lactam synthetase (βLS) (Streptomyces clavuligerus; V446G) (protein)
chain: B1 chain with V446G
[1]
  Km: 1200 ± 100 µM
  kcat: 0.13 ± 0.01 s⁻¹
[2]
  Km: 1900 ± 700 µM
  kcat: 0.07 ± 0.002 s⁻¹
[3]
  Km: 610 ± 60 µM
  kcat: 0.13 ± 0.01 s⁻¹

B3: β-lactam synthetase (βLS) (Streptomyces clavuligerus; H447A) (protein)
chain: B1 chain with H447A
[1]
  Km: 80 ± 60 µM
  kcat: 0.013 ± 0.001 s⁻¹

B4: β-lactam synthetase (βLS) (Streptomyces clavuligerus; V446A) (protein)
chain: B1 chain with V446A
[1]
  Km: 460 ± 40 µM
  kcat: 0.34 ± 0.02 s⁻¹
[2]
  Km: 330 ± 20 µM
  kcat: 0.014 ± 0.001 s⁻¹
[3]
  Km: 360 ± 20 µM
  kcat: 0.28 ± 0.01 s⁻¹
